Reference: patent US20220242962A1 (APTEVO RESEARCH AND DEVELOPMENT, published 2022)
Where a chain is given by its changes, count along the chain named. Numbers in names are those of the source.

B1: FXX01066 (bispecific antibody)
chain: EVQLVQSGAEVKKPGASVKVSCKASGYTFTSYWMNWVRQAPGQGLEWMGNIYPSGGSTNYAQKFQGRVTMTVDTSTSTVYMELSSLRSEDTAVYYCASFSDGYYAYAMDYWGQGTLVTVSSGGGGSGGGGSGGGGSGGGGSEIVMTQSPATLSLSPGERATLSCRASQSVSSYLNWYQQKPGQAPRLLIYYASRRHTGIPARFSGSGSGTDFTLTISSLQPEDFAVYYCQQGYNLPYTFGQGTKVEIKEPKSSDKTHTCPPCPAPPAAAPSVFLFPPKPKDTLMISRTPEVTCVVVDVSHEDPEVKFNWYVDGVEVHNAKTKPREEQYNSTYRVVSVLTVLHQDWLNGKEYKCAVSNKALPAPIEKTISKAKGQPREPQVYTLPPSRDELTKNQVSLTCLVKGFYPSDIAVEWESNGQPENNYKTTPPVLDSDGSFFLYSKLTVDKSRWQQGNVFSCSVMHEALHNHYTQKSLSLSPGGGGSPSSYVLTQPPSVSVAPGQTARITCGGNNIGSKSVNWFQQKPGQAPVLVVYDDSGRPSGIPERFSGSTSGNTATLTISRVEAGDEADYYCQVWDSSSDHVVFGGGTKLTVLGGGGSGGGGSGGGGSGGGGSQVQLVESGGGVVQPGRSLRLSCAASGFTLSYYGMHWVRQAPGKGLEWVAAISHDGSDKYYADSVKGRFTISRDNSKNTLYLQMNSLRAEDTAVYYCSNDQFDPWGQGTLVTVSSR
notes: ADAPTIR scFv-Fc-scFv, anti-4-1BB (VH-VL) N-terminal, anti-OX40 C-terminal, PAA (del) Fc; also called FX01066
B2: FXX01101 (bispecific antibody)
chain: B1 chain with T690R
notes: ADAPTIR anti-4-1BB (HL) x anti-OX40 with T86R; PAA (del) Fc; also called FX01101
B3: FXX01102 (bispecific antibody)
chain: B1 chain with Q500K, T690R
notes: ADAPTIR anti-4-1BB (HL) x anti-OX40 with Q17K and T86R; PAA (del) Fc; also called FX01102
B4: FXX01115 (bispecific antibody)
chain: B1 chain with I541V, E543N, T690R
notes: ADAPTIR anti-4-1BB x anti-OX40, pI variant; PAA (del) Fc
B5: FXX01119 (bispecific antibody)
chain: B1 chain with Q500K, I541V, E543N, T690R
notes: as for B4
B6: TSC 1005 (other)
chain: EPKSSDKTHTCPPCPAPPVAAPSVFLFPPKPKDTLMISRTPEVTCVVVDVSHEDPEVKFNWYVDGVEVHNAKTKPREEQYNSTYRVVSVLTVLHQDWLNGKEYKCAVSNKALPAPIEKTISKAKGQPREPQVYTLPPSRDELTKNQVSLTCLVKGFYPSDIAVEWESNGQPENNYKTTPPVLDSDGSFFLYSKLTVDKSRWQQGNVFSCSVMHEALHNHYTQKSLSLSPG
notes: IgG1 Fc with E233P, L234V, L235A, deletion of G236, G237A, K322A (EU); also called PVAdel TSC01005

Columns and labels:
Full-length Human OX40 = molecular target: T1, Full-length Human OX40 (human, UniProt P43489 29-277); assay: flow cytometry, CHO cells expressing human OX40
T1 construct: also called OXF001; human OX40/CHO
T1 sequence: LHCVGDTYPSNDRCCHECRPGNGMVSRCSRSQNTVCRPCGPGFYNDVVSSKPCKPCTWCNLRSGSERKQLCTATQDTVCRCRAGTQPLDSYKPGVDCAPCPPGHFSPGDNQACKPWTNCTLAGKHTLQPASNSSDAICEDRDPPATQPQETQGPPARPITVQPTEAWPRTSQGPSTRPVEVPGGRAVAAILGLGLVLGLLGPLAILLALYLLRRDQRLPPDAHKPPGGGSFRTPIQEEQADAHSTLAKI
Experimental: (§1) FIGS. 12A-12D show the binding of anti-4-1BB x anti-OX40 constructs, with additional humanization in 4-1BB and altered orientations of binding domains, human (12A) or cynomolgus (12C) 4-1BB-expressing Jurkat cells or human (12B) or cynomolgus (12D) OX40-expressing CHOK1SV cells. Serial dilutions of ADAPTIR™ constructs were incubated with transfected cells and subsequently labelled with a fluorescently-conjugated goat-a-human Fc secondary antibody. […] (See Example 19.)
(§2) Binding studies were performed using the flow cytometry-based staining procedures described above.

Full-length Human 4-1BB = molecular target: T2, Full-length Human 4-1BB (human, UniProt Q07011 24-255); assay: flow cytometry, Jurkat cells expressing human 4-1BB
T2 construct: also called FOB005; CD137
Experimental: as §1, §2

Full-length Cyno 4-1BB = molecular target: T3, Full-length Cyno 4-1BB (cynomolgus monkey, UniProt Q07011 24-255 (human entry)); assay: flow cytometry on Jurkat cells transfected with cynomolgus 4-1BB, goat anti-human Fc secondary antibody, MFI (Mean)
T3 construct: on Jurkat or CHO cells; also called FOB006; cynomolgus 4-1BB
T3 chain: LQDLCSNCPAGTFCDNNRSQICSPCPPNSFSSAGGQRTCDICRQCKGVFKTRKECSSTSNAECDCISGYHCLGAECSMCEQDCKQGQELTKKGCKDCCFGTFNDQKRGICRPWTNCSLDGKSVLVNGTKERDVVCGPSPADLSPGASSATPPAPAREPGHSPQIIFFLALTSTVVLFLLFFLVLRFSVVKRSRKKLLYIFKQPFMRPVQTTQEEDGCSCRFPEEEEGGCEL
Experimental: as §1, §2

Full-length Cyno OX40 = molecular target: T4, Full-length Cyno OX40 (cynomolgus monkey, UniProt P43489 29-277 (human entry)); assay: flow cytometry on CHOK1SV cells transfected with cynomolgus OX40, goat anti-human Fc secondary antibody, MFI (Mean)
T4 construct: on CHO-K1SV cells; also called OXF004; cynomolgus OX40
T4 chain: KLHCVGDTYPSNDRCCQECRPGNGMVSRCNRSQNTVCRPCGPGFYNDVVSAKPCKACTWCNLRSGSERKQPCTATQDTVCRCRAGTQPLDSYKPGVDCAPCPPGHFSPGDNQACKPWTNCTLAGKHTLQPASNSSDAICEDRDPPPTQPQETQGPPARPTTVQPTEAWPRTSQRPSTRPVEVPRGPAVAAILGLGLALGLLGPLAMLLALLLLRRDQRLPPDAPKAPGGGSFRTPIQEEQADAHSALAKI
Experimental: as §1, §2

[1] = molecular target: T5, Fc gamma receptor RIIIA V176 (human, UniProt P08637 17-208); assay: SPR, construct immobilized, receptor injected at 2 uM
T5 construct: soluble SPR analyte

C1Q = molecular target: T6, C1Q (UniProt P02745 23-245; P02746 28-253; P02747 29-245); assay: SPR, Fc captured, C1Q as analyte
T6 construct: also called complement C1Q
Experimental: Fc mutations to be potentially integrated into an ADAPTIR™ bispecific construct were analyzed for binding to the common Fc receptors (human and cyno) and C1Q, which is a component of the complement activation system. SPR experiments were conducted at 25° C. in HBS-EP+ buffer on a Biacore T200 system.
For these experiments, all four flow cells of a CM5 sensor chip were immobilized with goat F(ab′)2 anti-human Fc (Jackson ImmunoResearch) to a response level of ˜4000 RU. Fc variants and wild type Fc were diluted to 100 nM in HBS-EP+ and captured on the surface of the chip for 120 seconds at a flow rate of 10 μL/min. Fcγ receptors (human and cyno, all purchased from R&D Systems) and complement (C1Q, purchased from Quidel Corporation and Complement Technology, Inc) were diluted in HBS-EP+ and then flowed as analytes at 30 μL/min for 120 seconds followed by a 120 seconds dissociation. Regeneration was achieved by flowing 10 mM glycine pH 1.7 at 30 μL/min for 30 seconds followed by a 60 seconds stabilization. Flow cell 1 was always left as a blank (no captured protein) for purposes of background signal subtraction. Blank-subtracted sensorgrams for each captured Fc variant were inspected for the presence of binding to any of the Fcγ receptor proteins or complement. There are polymorphisms in the Human Fc receptors IIA and RIIIA, so both sequences were tested for binding.

T5 sequence (P08637 17-208 F176V): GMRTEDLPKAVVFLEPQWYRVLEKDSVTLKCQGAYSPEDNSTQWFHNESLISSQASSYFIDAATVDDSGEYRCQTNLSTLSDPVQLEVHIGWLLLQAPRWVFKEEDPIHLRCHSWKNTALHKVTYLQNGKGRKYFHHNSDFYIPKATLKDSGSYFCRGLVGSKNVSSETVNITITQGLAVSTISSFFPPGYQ
T6 sequence (P02745 23-245 limits assumed, chain 1 of 3): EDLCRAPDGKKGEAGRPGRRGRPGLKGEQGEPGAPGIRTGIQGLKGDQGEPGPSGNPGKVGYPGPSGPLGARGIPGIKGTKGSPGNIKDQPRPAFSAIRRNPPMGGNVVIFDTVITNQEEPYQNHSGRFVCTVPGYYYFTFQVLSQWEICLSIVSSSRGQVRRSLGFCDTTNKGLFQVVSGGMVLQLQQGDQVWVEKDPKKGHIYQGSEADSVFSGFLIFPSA
T6 sequence (P02746 28-253 limits assumed, chain 2 of 3): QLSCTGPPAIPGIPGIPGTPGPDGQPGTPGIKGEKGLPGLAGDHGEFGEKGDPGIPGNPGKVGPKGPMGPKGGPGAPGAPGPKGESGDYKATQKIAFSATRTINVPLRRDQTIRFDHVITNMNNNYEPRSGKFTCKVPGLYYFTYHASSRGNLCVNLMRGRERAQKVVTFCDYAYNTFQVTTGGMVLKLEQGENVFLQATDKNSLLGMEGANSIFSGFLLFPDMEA
T6 sequence (P02747 29-245 limits assumed, chain 3 of 3): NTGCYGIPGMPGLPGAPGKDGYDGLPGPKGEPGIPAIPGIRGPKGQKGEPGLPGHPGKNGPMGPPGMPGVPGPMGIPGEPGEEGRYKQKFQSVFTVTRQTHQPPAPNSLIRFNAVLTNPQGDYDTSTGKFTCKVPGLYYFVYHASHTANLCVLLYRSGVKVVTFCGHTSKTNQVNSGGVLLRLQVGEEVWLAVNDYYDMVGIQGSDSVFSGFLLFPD

| Binder | EC50 (Full-length Human OX40) | max MFI (Full-length Human OX40) | EC50 (Full-length Human 4-1BB) | max MFI (Full-length Human 4-1BB) | EC50 (read off the curve) (Full-length Cyno 4-1BB) | EC50 (read off the curve) (Full-length Cyno OX40) | Max RU value during association [1] | binding result (C1Q) |
| --- | --- | --- | --- | --- | --- | --- | --- | --- |
| B1 | 0.29 nM | 10400 MFI | 0.23 nM | 4710 MFI | ~0.3 nM | ~1 nM |  |  |
| B2 | 0.31 nM | 10500 MFI | 0.25 nM | 4850 MFI | ~0.3 nM | ~0.8 nM |  |  |
| B3 | 0.34 nM | 10500 MFI | 0.18 nM | 4850 MFI | ~0.3 nM | ~0.8 nM |  |  |
| B4 |  |  |  |  |  |  | 0 RU |  |
| B5 |  |  |  |  |  |  | 0 RU |  |
| B6 |  |  |  |  |  |  |  | no binding |
